Experimental findings from doi:10.1101/815886 are described below.

Data set [1] concerns the target CST with CTC1 R1193E/R1195E (human, UniProt Q2NKJ3;Q9H668;Q86WV5 1-1217;1-368;1-123, R1193E;R1195E;CTC1:). As to the kind of experiment: EMSA. Background: A gel shift assay detects complexes by their altered migration in electrophoresis.
Data set [2] deals with CST with CTC1 K743E/R744E (human, UniProt Q2NKJ3;Q9H668;Q86WV5 1-1217;1-368;1-123, K743E;R744E;CTC1:). As to the kind of experiment: EMSA.
Data set [3] concerns the target CST with CTC1 K1164E/K1167E (human, UniProt Q2NKJ3;Q9H668;Q86WV5 1-1217;1-368;1-123, K1164E;K1167E;CTC1:). Nature of the data set: EMSA.
The target in data set [4] is CST with CTC1 V967A/S979A/H980A (human, UniProt Q2NKJ3;Q9H668;Q86WV5 1-1217;1-368;1-123, V967A;S979A;H980A;CTC1:). As to the kind of experiment: EMSA.
The target of data set [5] is CST wild type (CTC1-STN1-TEN1) (human, UniProt Q2NKJ3;Q9H668;Q86WV5 1-1217;1-368;1-123). Nature of the data set: cryo-EM.
CST wild type (CTC1-STN1-TEN1), sequence (Q2NKJ3 whole entry, chain 1 of 3): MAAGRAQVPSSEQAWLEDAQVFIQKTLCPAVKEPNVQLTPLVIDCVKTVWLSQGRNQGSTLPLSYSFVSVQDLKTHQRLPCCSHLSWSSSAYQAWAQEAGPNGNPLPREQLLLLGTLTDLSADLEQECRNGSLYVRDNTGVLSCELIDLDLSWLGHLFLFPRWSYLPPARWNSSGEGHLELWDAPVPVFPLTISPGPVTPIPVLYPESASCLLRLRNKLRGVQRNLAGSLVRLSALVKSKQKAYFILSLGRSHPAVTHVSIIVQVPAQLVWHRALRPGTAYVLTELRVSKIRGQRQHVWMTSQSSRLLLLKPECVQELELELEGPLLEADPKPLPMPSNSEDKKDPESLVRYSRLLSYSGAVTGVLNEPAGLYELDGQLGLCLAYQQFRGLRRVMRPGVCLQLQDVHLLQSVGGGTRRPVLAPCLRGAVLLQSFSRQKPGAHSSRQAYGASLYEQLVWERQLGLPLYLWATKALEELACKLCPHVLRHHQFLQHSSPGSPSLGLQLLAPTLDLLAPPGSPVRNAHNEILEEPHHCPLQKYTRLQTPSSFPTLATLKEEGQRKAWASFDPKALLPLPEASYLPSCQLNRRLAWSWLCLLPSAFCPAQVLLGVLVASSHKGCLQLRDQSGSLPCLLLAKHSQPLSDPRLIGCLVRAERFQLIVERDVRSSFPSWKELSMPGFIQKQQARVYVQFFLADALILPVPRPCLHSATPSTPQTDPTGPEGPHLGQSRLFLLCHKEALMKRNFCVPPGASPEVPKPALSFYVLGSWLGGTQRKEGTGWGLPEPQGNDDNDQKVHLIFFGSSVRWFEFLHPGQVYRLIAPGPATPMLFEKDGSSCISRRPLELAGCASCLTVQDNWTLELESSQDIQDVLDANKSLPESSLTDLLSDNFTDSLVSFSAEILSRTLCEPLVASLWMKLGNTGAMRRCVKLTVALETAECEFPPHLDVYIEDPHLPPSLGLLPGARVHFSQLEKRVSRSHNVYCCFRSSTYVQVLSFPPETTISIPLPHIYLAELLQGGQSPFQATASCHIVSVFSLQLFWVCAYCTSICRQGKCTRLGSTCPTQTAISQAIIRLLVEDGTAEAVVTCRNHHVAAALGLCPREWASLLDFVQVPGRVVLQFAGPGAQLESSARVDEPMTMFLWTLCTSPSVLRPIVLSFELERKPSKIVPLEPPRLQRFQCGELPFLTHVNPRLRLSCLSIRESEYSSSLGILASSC
CST wild type (CTC1-STN1-TEN1), sequence (Q9H668 whole entry, chain 2 of 3): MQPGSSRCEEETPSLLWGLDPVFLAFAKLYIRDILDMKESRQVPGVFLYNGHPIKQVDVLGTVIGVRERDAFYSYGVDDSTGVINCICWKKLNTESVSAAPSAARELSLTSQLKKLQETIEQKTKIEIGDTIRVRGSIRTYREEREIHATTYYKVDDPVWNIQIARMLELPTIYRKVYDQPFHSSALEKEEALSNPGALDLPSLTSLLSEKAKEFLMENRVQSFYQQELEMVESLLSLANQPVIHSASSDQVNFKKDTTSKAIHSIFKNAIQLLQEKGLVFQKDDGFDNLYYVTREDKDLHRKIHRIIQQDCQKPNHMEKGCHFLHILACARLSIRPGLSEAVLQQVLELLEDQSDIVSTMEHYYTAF
CST wild type (CTC1-STN1-TEN1), sequence (Q86WV5 whole entry, chain 3 of 3): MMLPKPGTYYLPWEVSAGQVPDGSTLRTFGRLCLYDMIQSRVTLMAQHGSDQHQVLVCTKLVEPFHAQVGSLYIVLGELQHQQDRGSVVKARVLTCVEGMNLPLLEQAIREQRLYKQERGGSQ

CST with CTC1 K1164E/K1167E, sequence (Q2NKJ3 whole entry K1164E/K1167E, chain 1 of 3): as the sequence (Q2NKJ3 whole entry, chain 1 of 3) above, with K1164E, K1167E counted along it
CST with CTC1 K1164E/K1167E, sequence (Q9H668 whole entry, stated change not applied, chain 2 of 3): as the sequence (Q9H668 whole entry, chain 2 of 3) above
CST with CTC1 K1164E/K1167E, sequence (Q86WV5 whole entry, stated change not applied, chain 3 of 3): as the sequence (Q86WV5 whole entry, chain 3 of 3) above
CST with CTC1 V967A/S979A/H980A, sequence (Q2NKJ3 whole entry V967A/S979A/H980A, chain 1 of 3): as the sequence (Q2NKJ3 whole entry, chain 1 of 3) above, with V967A, S979A, H980A counted along it
CST with CTC1 V967A/S979A/H980A, sequence (Q9H668 whole entry, stated change not applied, chain 2 of 3): as the sequence (Q9H668 whole entry, chain 2 of 3) above
CST with CTC1 V967A/S979A/H980A, sequence (Q86WV5 whole entry, stated change not applied, chain 3 of 3): as the sequence (Q86WV5 whole entry, chain 3 of 3) above
CST with CTC1 R1193E/R1195E, sequence (Q2NKJ3 whole entry R1193E/R1195E, chain 1 of 3): as the sequence (Q2NKJ3 whole entry, chain 1 of 3) above, with R1193E, R1195E counted along it
CST with CTC1 R1193E/R1195E, sequence (Q9H668 whole entry, stated change not applied, chain 2 of 3): as the sequence (Q9H668 whole entry, chain 2 of 3) above
CST with CTC1 R1193E/R1195E, sequence (Q86WV5 whole entry, stated change not applied, chain 3 of 3): as the sequence (Q86WV5 whole entry, chain 3 of 3) above
CST with CTC1 K743E/R744E, sequence (Q2NKJ3 whole entry K743E/R744E, chain 1 of 3): as the sequence (Q2NKJ3 whole entry, chain 1 of 3) above, with K743E, R744E counted along it
CST with CTC1 K743E/R744E, sequence (Q9H668 whole entry, stated change not applied, chain 2 of 3): as the sequence (Q9H668 whole entry, chain 2 of 3) above
CST with CTC1 K743E/R744E, sequence (Q86WV5 whole entry, stated change not applied, chain 3 of 3): as the sequence (Q86WV5 whole entry, chain 3 of 3) above

B1: 3xTEL (ssDNA)
DNA: TTAGGGTTAGGGTTAGGG
Turning to B1, the binding result in data set [1] is “no binding”; in data set [2] it was “binds”; in data set [3], “no binding”; in data set [4], “no binding”; in data set [5] it was “binds”.
